Experimental data taken from paper PMC6044951.

Substrate: O=c1ccn([C@@H]2O[C@H](CO[P@@](=O)(O)O[P@@](=O)(O)O[C@H]3O[C@H](CO)[C@@H](O)[C@H](O)[C@H]3O)[C@@H](O)[C@H]2O)c(=O)[nH]1
Test: purified protein
Conditions: 30 °C, Michaelis-Menten fit

B1: BcsA-BcsB (Cereibacter sphaeroides 2.4.1) (protein)
chain: MTVRAKARSPLRVVPVLLFLLWVALLVPFGLLAAAPVAPSAQGLIALSAVVLVALLKPFADKMVPRFLLLSAASMLVMRYWFWRLFETLPPPALDASFLFALLLFAVETFSISIFFLNGFLSADPTDRPFPRPLQPEELPTVDILVPSYNEPADMLSVTLAAAKNMIYPARLRTVVLCDDGGTDQRCMSPDPELAQKAQERRRELQQLCRELGVVYSTRERNEHAKAGNMSAALERLKGELVVVFDADHVPSRDFLARTVGYFVEDPDLFLVQTPHFFINPDPIQRNLALGDRCPPENEMFYGKIHRGLDRWGGAFFCGSAAVLRRRALDEAGGFAGETITEDAETALEIHSRGWKSLYIDRAMIAGLQPETFASFIQQRGRWATGMMQMLLLKNPLFRRGLGIAQRLCYLNSMSFWFFPLVRMMFLVAPLIYLFFGIEIFVATFEEVLAYMPGYLAVSFLVQNALFARQRWPLVSEVYEVAQAPYLARAIVTTLLRPRSARFAVTAKDETLSENYISPIYRPLLFTFLLCLSGVLATLVRWVAFPGDRSVLLVVGGWAVLNVLLVGFALRAVAEKQQRRAAPRVQMEVPAEAQIPAFGNRSLTATVLDASTSGVRLLVRLPGVGDPHPALEAGGLIQFQPKFPDAPQLERMVRGRIRSARREGGTVMVGVIFEAGQPIAVRETVAYLIFGESAHWRTMREATMRPIGLLHGMARILWMAAASLPKTARDFMDEPARRRRRHEEPKEKQAHLLAFGTDFSTEPDWAGELLDPTAQVSARPNTVAWGSN
Km: 340 ± 70 µM
kcat: 0.43 ± 0.17 s⁻¹
